Results published in patent publication US20130273076A1 (Harvard, published 2013).

Assays:
[1] = molecular target: endogenous RhoA of mouse brain (mouse, UniProt Q9QUI0 1-190); assay: cell-based or functional assay
[2] = molecular target: EphA2 (expressed in HEK293T cells)
[3] = molecular target: Flag-EphB2-Acyto (cytoplasmic truncated version of EphB2)
[4] = molecular target: Flag-EphA4
[5] = molecular target: Flag-EphB2
[6] = molecular target: Flag-EphB2-kinase dead (KD)

Sequence of EphA2 (expressed in HEK293T cells) (P29317 whole entry, the tested form may be a part): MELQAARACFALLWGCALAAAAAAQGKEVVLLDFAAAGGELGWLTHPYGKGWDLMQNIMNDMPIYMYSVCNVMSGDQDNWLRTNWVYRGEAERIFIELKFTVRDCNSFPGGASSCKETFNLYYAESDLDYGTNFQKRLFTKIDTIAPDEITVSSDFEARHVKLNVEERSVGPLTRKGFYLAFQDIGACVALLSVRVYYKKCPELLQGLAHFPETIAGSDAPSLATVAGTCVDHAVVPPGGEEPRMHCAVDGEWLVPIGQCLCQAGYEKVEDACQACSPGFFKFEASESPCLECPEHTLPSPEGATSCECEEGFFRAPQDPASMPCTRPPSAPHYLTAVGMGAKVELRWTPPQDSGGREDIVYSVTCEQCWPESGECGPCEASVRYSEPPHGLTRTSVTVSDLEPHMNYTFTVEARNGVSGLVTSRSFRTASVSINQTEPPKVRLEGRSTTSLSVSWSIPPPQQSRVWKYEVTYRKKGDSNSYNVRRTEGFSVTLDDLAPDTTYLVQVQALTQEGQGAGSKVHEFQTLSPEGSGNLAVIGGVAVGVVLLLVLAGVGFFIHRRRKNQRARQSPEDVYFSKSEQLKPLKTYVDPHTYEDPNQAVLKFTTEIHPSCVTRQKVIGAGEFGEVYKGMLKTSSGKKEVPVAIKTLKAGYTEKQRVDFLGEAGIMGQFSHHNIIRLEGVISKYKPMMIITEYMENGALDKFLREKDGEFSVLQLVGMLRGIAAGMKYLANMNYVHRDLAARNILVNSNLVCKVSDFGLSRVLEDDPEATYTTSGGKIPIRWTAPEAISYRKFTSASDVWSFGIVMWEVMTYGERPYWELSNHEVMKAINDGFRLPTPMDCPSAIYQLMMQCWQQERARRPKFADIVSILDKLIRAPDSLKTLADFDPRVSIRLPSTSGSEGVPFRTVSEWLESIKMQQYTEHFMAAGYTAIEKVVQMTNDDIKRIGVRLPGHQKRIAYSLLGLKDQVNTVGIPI
Sequence of endogenous RhoA of mouse brain (Q9QUI0 1-190 limits assumed): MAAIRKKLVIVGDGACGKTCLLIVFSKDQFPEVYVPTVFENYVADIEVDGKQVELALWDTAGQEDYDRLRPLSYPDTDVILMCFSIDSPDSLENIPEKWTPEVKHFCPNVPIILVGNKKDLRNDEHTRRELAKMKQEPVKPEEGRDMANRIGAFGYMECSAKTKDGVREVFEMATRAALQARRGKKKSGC

Binder	anti-RhoA signal from RBD pulldown assays, Ephexin5-/- against wild type brain lysates [1] [fold]	phosphorylation of Ephexin5 at Y361 (anti-pY361 immunoblot) [2]	phosphorylation of Ephexin5 at Y361 (anti-pY361 immunoblot) [3]	phosphorylation of Ephexin5 at Y361 (anti-pY361 immunoblot) [4]	phosphorylation of Ephexin5 at Y361 (anti-pY361 immunoblot) [5]	tyrosine phosphorylation of Ephexin5 (anti-phosphotyrosine 4G10 immunoblot) [5]	phosphorylation of Ephexin5 at Y361 (anti-pY361 immunoblot) [6]
endogenous mouse Ephexin5 (neurons, brain lysates) (enzyme, UniProt Q5FWH6 1-849, looked up) MSAQSLPAATPPTLKPPRIIRPRPPSRHRAPHSPGPLHNGSSPKALPQISNDASASVCTSIFWEPPTASLKPPALLPPSVSRTSLDSQTSPDSPSSTPSPSPVSRRSISPEPAPCSPVPPPKPSGSSRTPLPSGPTPLQDGSASAPGTVRRLAGKFEWGAEGKAQSSDSLERCSQGSTEVNGEKETPEAALSGNGSQENGTPDAALACPPCCPCVCHVAKPGLELRWVPVGSSEDILRIPCRASPLRASRSRINPPVISHPPVVLTSYRSTAERKLLPPLKPPKPTKVRQDISTSEELPQPDLKLPSEDGIQTATKAWEGDRPEGAPLNAPPVALEGREEEGLDGLKGLQWELPLQDEPLYQTYRAAVLSEELWGVGEDGGPSPANPGEAPTFSRLPGPRNTLWQELPAVRGSGLLESLSPQERRMQESLFEVVTSEASYLRSLRLLTDTFVLSQALRDTLTPRDHHTLFSNVQRVQSVSERFLGTLLSRVRSSPHITDLCDVVHAHAVGPFFVYVDYVRNQQYQEETYSRLMDTNVRFSAELRRLQSLPKCERLPLPSFLLLPFQRITRLRMLLQNILSQTEEGSSRQENAQKALGAVSKIIERCSAEVGRMKQTEELIRLTQRLRFHKVKALPLVSWSRRLELQGELTELGCRRGGVLFTSRPRFTPLCLLLFSDLLLITQPKSGQRLQVLDYAHRSLVQAQQVPDPSGPPTFRLSLLSNHQGRPTHRLLQAASLSDMQRWLGAFPTPGPLPCSPDTIYEDCECSQELCSEPSTPSKTEGQSLESKAPRKHLHKNPEGWLKGLPGAFPAQLVCEVTGEHERRKHLRQHQKLLEAVGPSSGTPDTPQP	4	when EphA4 or EphA2 were expressed in HEK293T cells they detected little to no phosphorylation of Ephexin5 at Y361	when wild type EphB2, but not a kinase dead or cytoplasmic truncated version of EphB2, was expressed in HEK293T cells together with Ephexin5, Ephexin5 become tyrosine phosphorylated at Y361	when EphA4 or EphA2 were expressed in HEK293T cells they detected little to no phosphorylation of Ephexin5 at Y361	when wild type EphB2, but not a kinase dead or cytoplasmic truncated version of EphB2, was expressed in HEK293T cells together with Ephexin5, Ephexin5 become tyrosine phosphorylated at Y361	in the presence of EphB2, Ephexin5-WT, but not Ephexin5-Y361F, become tyrosine phosphorylated	when wild type EphB2, but not a kinase dead or cytoplasmic truncated version of EphB2, was expressed in HEK293T cells together with Ephexin5, Ephexin5 become tyrosine phosphorylated at Y361
Ephexin5-Y361F-Myc (protein) MSAQSLPAATPPTLKPPRIIRPRPPSRHRAPHSPGPLHNGSSPKALPQISNDASASVCTSIFWEPPTASLKPPALLPPSVSRTSLDSQTSPDSPSSTPSPSPVSRRSISPEPAPCSPVPPPKPSGSSRTPLPSGPTPLQDGSASAPGTVRRLAGKFEWGAEGKAQSSDSLERCSQGSTEVNGEKETPEAALSGNGSQENGTPDAALACPPCCPCVCHVAKPGLELRWVPVGSSEDILRIPCRASPLRASRSRINPPVISHPPVVLTSYRSTAERKLLPPLKPPKPTKVRQDISTSEELPQPDLKLPSEDGIQTATKAWEGDRPEGAPLNAPPVALEGREEEGLDGLKGLQWELPLQDEPLFQTYRAAVLSEELWGVGEDGGPSPANPGEAPTFSRLPGPRNTLWQELPAVRGSGLLESLSPQERRMQESLFEVVTSEASYLRSLRLLTDTFVLSQALRDTLTPRDHHTLFSNVQRVQSVSERFLGTLLSRVRSSPHITDLCDVVHAHAVGPFFVYVDYVRNQQYQEETYSRLMDTNVRFSAELRRLQSLPKCERLPLPSFLLLPFQRITRLRMLLQNILSQTEEGSSRQENAQKALGAVSKIIERCSAEVGRMKQTEELIRLTQRLRFHKVKALPLVSWSRRLELQGELTELGCRRGGVLFTSRPRFTPLCLLLFSDLLLITQPKSGQRLQVLDYAHRSLVQAQQVPDPSGPPTFRLSLLSNHQGRPTHRLLQAASLSDMQRWLGAFPTPGPLPCSPDTIYEDCECSQELCSEPSTPSKTEGQSLESKAPRKHLHKNPEGWLKGLPGAFPAQLVCEVTGEHERRKHLRQHQKLLEAVGPSSGTPDTPQP						in the presence of EphB2, Ephexin5-WT, but not Ephexin5-Y361F, become tyrosine phosphorylated	
